The data set concerns the molecule itself. As to the kind of experiment: crystal structure; purified protein in n-decyl-beta-D-maltopyranoside (DM); sitting drop vapour diffusion at 22 °C, 16-18% PEG600, 0.12 M Tris/HCl pH 9.0, 0.1 M NaCl, 1 mM TCEP; crystals soaked with 5 mM MnCl2 and 25 mM UDP-glucose; space group C2, one tetramer in the asymmetric unit.

Changes are numbered by the printed parent chain. Names may count otherwise.

The values below come from article PMC4728340, “Structure of the polyisoprenyl-phosphate glycosyltransferase GtrB and insights into the mechanism of catalysis” (Nature Communications, 2016).

B1: GtrB from Synechocystis sp. PCC6803 (enzyme, Synechocystis sp. PCC 6803, UniProt Q55487 1-318, looked up)
chain: MTIELSIVIPMYNEEDNLEHLFARLLEVLTPLKITYEIICVNDGSKDKTLKQLIDCYQSNRQIKIVNLSRNFGKEIALSAGIDYAQGNAVIPIDADLQDPPELIHELVDKWREGYDIVYATRRSRQGETWVKQFTAKMFYKVIGRMTEIKIPPNTGDFRLMDRKVVNAIKQLPERTRFMKGLFAWVGYRQTFVLFDREPRFQGQTKWNYWKLWNFALDGIFSFSLLPLKVWTYLGSIISLLSLAYASFLILKTITLGVDVPGYASLMVAILFLGGVQLISLGVIGEYLGRVYEEVKARPLYLVSDLWGLEYLPLEKLN
notes: GtrB, polyisoprenyl-phosphate glycosyltransferase, Synechocystis sp; PCC 6803, UniProt Q55487; open reading frame amplified from genomic DNA; a TEV protease cleavage site stands between the tag and the protein; Vector pMCSG7; A selenomethionine-substituted form was used for phasing only; In the deposited coordinates each protomer is divided into two chains; also called GtrBSyn; WT
B1: the “stoichiometry N” value came to 4.

B2: GtrB from Synechocystis sp. PCC6803, point mutant F215A (enzyme, Synechocystis sp. PCC 6803, UniProt Q55487 1-318, looked up)
chain: B1 chain with F215A
notes: GtrB, Synechocystis sp; PCC 6803, UniProt Q55487, same construct as m1 with the point mutation F215A (QuikChange); also called GtrB (F215A); source: E. coli, purified and crystallized in the same way as the wild type
With B2, the binding result is reported as “binds”.
